# PMC9482650, “Quantitative fragmentomics allow affinity mapping of interactomes” (Nature Communications, 2022)
# T1: GRIP1_3, Q9Y3R0
# T1 sequence (Q9Y3R0 247-346, limits assumed, looked up): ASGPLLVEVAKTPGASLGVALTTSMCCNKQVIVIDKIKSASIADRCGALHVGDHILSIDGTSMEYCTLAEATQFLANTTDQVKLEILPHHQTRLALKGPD
# T2: GRIP1_5, Q9Y3R0
# T2 sequence (Q9Y3R0 568-668, limits assumed, looked up): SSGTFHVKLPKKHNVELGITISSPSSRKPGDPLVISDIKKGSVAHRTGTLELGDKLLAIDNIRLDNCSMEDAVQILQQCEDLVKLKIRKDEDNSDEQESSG
# T3: APBA3_1, O96018
# T3 sequence (O96018 389-490, limits assumed, looked up): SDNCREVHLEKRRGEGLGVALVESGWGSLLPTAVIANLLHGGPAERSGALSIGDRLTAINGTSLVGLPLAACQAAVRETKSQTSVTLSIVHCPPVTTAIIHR
# T4: DFNB31_1, Q9P202
# T4 sequence (Q9P202 135-233, limits assumed, looked up): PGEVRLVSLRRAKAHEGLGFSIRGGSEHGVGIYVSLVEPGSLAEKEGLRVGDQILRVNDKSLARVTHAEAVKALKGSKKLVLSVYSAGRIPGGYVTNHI
# T5: PDZRN3_1, Q9UPQ7
# T5 sequence (Q9UPQ7 244-349, limits assumed, looked up): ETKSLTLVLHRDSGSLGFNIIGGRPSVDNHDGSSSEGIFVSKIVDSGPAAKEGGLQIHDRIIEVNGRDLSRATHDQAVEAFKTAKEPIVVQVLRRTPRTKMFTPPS
# T6: SNTB1, Q13884
# T6 sequence (Q13884 107-205, limits assumed, looked up): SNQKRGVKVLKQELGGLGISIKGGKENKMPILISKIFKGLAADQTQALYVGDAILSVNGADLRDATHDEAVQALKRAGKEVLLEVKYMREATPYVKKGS
# T7: TX1BP3, O14907
# T7 sequence (O14907 10-122, limits assumed, looked up): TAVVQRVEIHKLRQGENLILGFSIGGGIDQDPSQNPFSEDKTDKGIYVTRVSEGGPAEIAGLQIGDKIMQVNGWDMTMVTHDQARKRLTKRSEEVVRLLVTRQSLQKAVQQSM
# T8: RADIL, Q96JH8
# T8 sequence (Q96JH8 971-1071, limits assumed, looked up): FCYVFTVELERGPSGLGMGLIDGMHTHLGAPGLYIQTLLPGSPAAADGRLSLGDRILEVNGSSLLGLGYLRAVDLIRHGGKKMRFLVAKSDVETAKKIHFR
# B1: CAPN6, Q9Y6Q1 (peptide)
# chain: VISSDDLTEL
# B2: CD226, Q15762 (peptide)
# chain: TFSRRPKTRV
# Target: SCRIB_3, Q14160
# Experiment: holdup assay
# Design: key: below the threshold = too weak to quantify, mostly under pKd 3.1 to 4
# Conditions: plain residues with an end cap or a label only (N-terminal biotin on a linker: ado-ado)
# Sequence of SCRIB_3, Q14160 (Q14160 999-1103): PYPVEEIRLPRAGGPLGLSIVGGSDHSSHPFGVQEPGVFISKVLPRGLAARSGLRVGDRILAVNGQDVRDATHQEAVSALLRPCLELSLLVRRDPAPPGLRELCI
row,Binder,pKd
1,B1,3.86
2,B2,below the threshold

# Target: T1, GRIP1_3, Q9Y3R0
# Experiment: holdup assay
# Design: key: below the threshold = too weak to quantify, mostly under pKd 3.1 to 4
# Conditions: plain residues with an end cap or a label only (N-terminal biotin on a linker: ado-ado)
row,Binder,pKd
1,B1,below the threshold
2,B2,below the threshold

# Target: T2, GRIP1_5, Q9Y3R0
# Experiment: holdup assay
# Design: key: below the threshold = too weak to quantify, mostly under pKd 3.1 to 4
# Conditions: plain residues with an end cap or a label only (N-terminal biotin on a linker: ado-ado)
row,Binder,pKd
1,B1,below the threshold
2,B2,below the threshold

# Target: GRIP2_7, Q9C0E4
# Experiment: holdup assay
# Design: key: below the threshold = too weak to quantify, mostly under pKd 3.1 to 4
# Conditions: plain residues with an end cap or a label only (N-terminal biotin on a linker: ado-ado)
# Sequence of GRIP2_7, Q9C0E4 (Q9C0E4 934-1023): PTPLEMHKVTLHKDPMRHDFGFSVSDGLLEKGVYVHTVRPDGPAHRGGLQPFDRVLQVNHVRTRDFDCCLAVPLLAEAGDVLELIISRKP
row,Binder,pKd
1,B1,below the threshold
2,B2,below the threshold

# Target: LNX1_3, Q8TBB1
# Experiment: holdup assay
# Design: key: below the threshold = too weak to quantify, mostly under pKd 3.1 to 4
# Conditions: plain residues with an end cap or a label only (N-terminal biotin on a linker: ado-ado)
# Sequence of LNX1_3, Q8TBB1 (Q8TBB1 500-596): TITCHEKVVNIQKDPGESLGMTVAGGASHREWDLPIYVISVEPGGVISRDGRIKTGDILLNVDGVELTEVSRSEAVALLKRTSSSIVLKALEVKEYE
row,Binder,pKd
1,B1,below the threshold
2,B2,3.5

# Target: DLG4_3, P78352
# Experiment: holdup assay
# Design: key: below the threshold = too weak to quantify, mostly under pKd 3.1 to 4
# Conditions: plain residues with an end cap or a label only (N-terminal biotin on a linker: ado-ado)
# Sequence of DLG4_3, P78352 (P78352 306-403): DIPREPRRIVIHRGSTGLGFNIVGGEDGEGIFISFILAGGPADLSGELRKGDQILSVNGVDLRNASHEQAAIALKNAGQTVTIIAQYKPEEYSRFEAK
row,Binder,pKd
1,B1,below the threshold
2,B2,3.84

# Target: T3, APBA3_1, O96018
# Experiment: holdup assay
# Design: key: below the threshold = too weak to quantify, mostly under pKd 3.1 to 4
# Conditions: plain residues with an end cap or a label only (N-terminal biotin on a linker: ado-ado)
row,Binder,pKd
1,B1,below the threshold
2,B2,below the threshold

# Target: DLG5_1, Q8TDM6
# Experiment: holdup assay
# Design: key: below the threshold = too weak to quantify, mostly under pKd 3.1 to 4
# Conditions: plain residues with an end cap or a label only (N-terminal biotin on a linker: ado-ado)
# Sequence of DLG5_1, Q8TDM6 (Q8TDM6 617-713): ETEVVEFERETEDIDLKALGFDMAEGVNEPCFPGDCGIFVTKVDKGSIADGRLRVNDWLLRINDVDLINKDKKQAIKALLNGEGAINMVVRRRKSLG
row,Binder,pKd
1,B1,below the threshold
2,B2,below the threshold

# Target: LNX1_2, Q8TBB1
# Experiment: holdup assay
# Design: key: below the threshold = too weak to quantify, mostly under pKd 3.1 to 4
# Conditions: plain residues with an end cap or a label only (N-terminal biotin on a linker: ado-ado)
# Sequence of LNX1_2, Q8TBB1 (Q8TBB1 371-470): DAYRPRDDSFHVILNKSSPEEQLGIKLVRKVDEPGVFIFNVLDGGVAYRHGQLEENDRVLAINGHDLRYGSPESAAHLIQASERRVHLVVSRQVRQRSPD
row,Binder,pKd
1,B1,below the threshold
2,B2,below the threshold

# Target: T4, DFNB31_1, Q9P202
# Experiment: holdup assay
# Design: key: below the threshold = too weak to quantify, mostly under pKd 3.1 to 4
# Conditions: plain residues with an end cap or a label only (N-terminal biotin on a linker: ado-ado)
row,Binder,pKd
1,B1,3.56
2,B2,below the threshold

# Target: T5, PDZRN3_1, Q9UPQ7
# Experiment: holdup assay
# Design: key: below the threshold = too weak to quantify, mostly under pKd 3.1 to 4
# Conditions: plain residues with an end cap or a label only (N-terminal biotin on a linker: ado-ado)
row,Binder,pKd
1,B1,below the threshold
2,B2,3.48

# Target: GORASP1, Q9BQQ3
# Experiment: holdup assay
# Design: key: below the threshold = too weak to quantify, mostly under pKd 3.1 to 4
# Conditions: plain residues with an end cap or a label only (N-terminal biotin on a linker: ado-ado)
# Sequence of GORASP1, Q9BQQ3 (Q9BQQ3 1-208): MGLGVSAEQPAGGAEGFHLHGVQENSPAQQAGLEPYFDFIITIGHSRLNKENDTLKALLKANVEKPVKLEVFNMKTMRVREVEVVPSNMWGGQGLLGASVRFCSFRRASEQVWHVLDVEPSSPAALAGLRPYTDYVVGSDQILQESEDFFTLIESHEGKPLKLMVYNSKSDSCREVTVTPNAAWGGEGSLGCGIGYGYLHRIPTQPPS
row,Binder,pKd
1,B1,below the threshold
2,B2,3.75

# Target: T6, SNTB1, Q13884
# Experiment: holdup assay
# Design: key: below the threshold = too weak to quantify, mostly under pKd 3.1 to 4
# Conditions: plain residues with an end cap or a label only (N-terminal biotin on a linker: ado-ado)
row,Binder,pKd
1,B1,below the threshold
2,B2,below the threshold

# Target: GIPC2, Q8TF65
# Experiment: holdup assay
# Design: key: below the threshold = too weak to quantify, mostly under pKd 3.1 to 4
# Conditions: plain residues with an end cap or a label only (N-terminal biotin on a linker: ado-ado)
# Sequence of GIPC2, Q8TF65 (Q8TF65 112-203): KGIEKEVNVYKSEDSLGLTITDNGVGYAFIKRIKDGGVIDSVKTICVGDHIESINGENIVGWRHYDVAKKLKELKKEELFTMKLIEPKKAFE
row,Binder,pKd
1,B1,below the threshold
2,B2,below the threshold

# Target: Inadl_6, Q8NI35
# Experiment: holdup assay
# Design: key: below the threshold = too weak to quantify, mostly under pKd 3.1 to 4
# Conditions: plain residues with an end cap or a label only (N-terminal biotin on a linker: ado-ado)
# Sequence of Inadl_6, Q8NI35 (Q8NI35 1058-1167): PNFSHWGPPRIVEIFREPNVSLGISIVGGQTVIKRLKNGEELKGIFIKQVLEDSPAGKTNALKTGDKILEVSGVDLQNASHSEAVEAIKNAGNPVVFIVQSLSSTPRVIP
row,Binder,pKd
1,B1,below the threshold
2,B2,below the threshold

# Target: MAGI2_6, Q86UL8
# Experiment: holdup assay
# Design: key: below the threshold = too weak to quantify, mostly under pKd 3.1 to 4
# Conditions: plain residues with an end cap or a label only (N-terminal biotin on a linker: ado-ado)
# Sequence of MAGI2_6, Q86UL8 (Q86UL8 1141-1229): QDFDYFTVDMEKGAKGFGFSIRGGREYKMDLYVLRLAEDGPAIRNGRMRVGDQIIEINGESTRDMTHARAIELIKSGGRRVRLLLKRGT
row,Binder,pKd
1,B1,3.59
2,B2,below the threshold

# Target: MAGI1_1, Q96QZ7
# Experiment: holdup assay
# Design: key: below the threshold = too weak to quantify, mostly under pKd 3.1 to 4
# Conditions: plain residues with an end cap or a label only (N-terminal biotin on a linker: ado-ado)
# Sequence of MAGI1_1, Q96QZ7 (Q96QZ7 1-106): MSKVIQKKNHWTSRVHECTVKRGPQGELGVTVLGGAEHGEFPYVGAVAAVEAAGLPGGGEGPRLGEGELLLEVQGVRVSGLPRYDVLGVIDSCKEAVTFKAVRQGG
row,Binder,pKd
1,B1,below the threshold
2,B2,3.62

# Target: T7, TX1BP3, O14907
# Experiment: holdup assay
# Design: key: below the threshold = too weak to quantify, mostly under pKd 3.1 to 4
# Conditions: plain residues with an end cap or a label only (N-terminal biotin on a linker: ado-ado)
row,Binder,pKd
1,B1,below the threshold
2,B2,below the threshold

# Target: SNX27, Q96L92
# Experiment: holdup assay
# Design: key: below the threshold = too weak to quantify, mostly under pKd 3.1 to 4
# Conditions: plain residues with an end cap or a label only (N-terminal biotin on a linker: ado-ado)
row,Binder,pKd
1,B1,4.17
2,B2,3.88

# Target: FRMPD4, Q14CM0
# Experiment: holdup assay
# Design: key: below the threshold = too weak to quantify, mostly under pKd 3.1 to 4
# Conditions: plain residues with an end cap or a label only (N-terminal biotin on a linker: ado-ado)
# Sequence of FRMPD4, Q14CM0 (Q14CM0 67-160): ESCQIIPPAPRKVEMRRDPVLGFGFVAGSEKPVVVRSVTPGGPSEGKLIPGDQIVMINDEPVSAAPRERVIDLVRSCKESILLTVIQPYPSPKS
row,Binder,pKd
1,B1,4.73
2,B2,below the threshold

# Target: MAGI2_5, Q86UL8
# Experiment: holdup assay
# Design: key: below the threshold = too weak to quantify, mostly under pKd 3.1 to 4
# Conditions: plain residues with an end cap or a label only (N-terminal biotin on a linker: ado-ado)
# Sequence of MAGI2_5, Q86UL8 (Q86UL8 915-1017): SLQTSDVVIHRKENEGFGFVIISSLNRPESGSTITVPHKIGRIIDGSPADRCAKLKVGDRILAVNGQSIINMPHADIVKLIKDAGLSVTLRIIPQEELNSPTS
row,Binder,pKd
1,B1,3.53
2,B2,below the threshold

# Target: T8, RADIL, Q96JH8
# Experiment: holdup assay
# Design: key: below the threshold = too weak to quantify, mostly under pKd 3.1 to 4
# Conditions: plain residues with an end cap or a label only (N-terminal biotin on a linker: ado-ado)
row,Binder,pKd
1,B1,below the threshold
2,B2,3.57

# Target: PDZRN4_1, Q6ZMN7
# Experiment: holdup assay
# Design: key: below the threshold = too weak to quantify, mostly under pKd 3.1 to 4
# Conditions: plain residues with an end cap or a label only (N-terminal biotin on a linker: ado-ado)
# Sequence of PDZRN4_1, Q6ZMN7 (Q6ZMN7 213-318): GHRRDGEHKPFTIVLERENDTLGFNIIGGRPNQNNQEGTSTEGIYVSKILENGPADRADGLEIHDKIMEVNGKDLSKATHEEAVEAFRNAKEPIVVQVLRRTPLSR
row,Binder,pKd
1,B1,below the threshold
2,B2,below the threshold

# Target: Inadl_1, Q8NI35
# Experiment: holdup assay
# Design: key: below the threshold = too weak to quantify, mostly under pKd 3.1 to 4
# Conditions: plain residues with an end cap or a label only (N-terminal biotin on a linker: ado-ado)
# Sequence of Inadl_1, Q8NI35 (Q8NI35 113-229): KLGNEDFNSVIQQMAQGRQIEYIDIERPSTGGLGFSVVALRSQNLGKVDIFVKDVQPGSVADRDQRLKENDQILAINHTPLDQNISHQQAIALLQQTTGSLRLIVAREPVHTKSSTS
row,Binder,pKd
1,B1,below the threshold
2,B2,below the threshold

# Target: PICK1, Q9NRD5
# Experiment: holdup assay
# Design: key: below the threshold = too weak to quantify, mostly under pKd 3.1 to 4
# Conditions: plain residues with an end cap or a label only (N-terminal biotin on a linker: ado-ado)
# Sequence of PICK1, Q9NRD5 (Q9NRD5 17-115): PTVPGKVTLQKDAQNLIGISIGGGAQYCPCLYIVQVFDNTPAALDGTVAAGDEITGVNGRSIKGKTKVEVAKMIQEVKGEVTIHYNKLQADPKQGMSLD
row,Binder,pKd
1,B1,below the threshold
2,B2,below the threshold

# Target: IL16_4, Q14005
# Experiment: holdup assay
# Design: key: below the threshold = too weak to quantify, mostly under pKd 3.1 to 4
# Conditions: plain residues with an end cap or a label only (N-terminal biotin on a linker: ado-ado)
# Sequence of IL16_4, Q14005 (Q14005 1229-1329): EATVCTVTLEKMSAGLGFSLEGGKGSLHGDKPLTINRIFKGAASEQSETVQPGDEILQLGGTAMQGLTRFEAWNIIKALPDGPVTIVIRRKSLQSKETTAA
row,Binder,pKd
1,B1,3.7
2,B2,below the threshold

# Target: GRIP2_4, Q9C0E4
# Experiment: holdup assay
# Design: key: below the threshold = too weak to quantify, mostly under pKd 3.1 to 4
# Conditions: plain residues with an end cap or a label only (N-terminal biotin on a linker: ado-ado)
# Sequence of GRIP2_4, Q9C0E4 (Q9C0E4 446-548): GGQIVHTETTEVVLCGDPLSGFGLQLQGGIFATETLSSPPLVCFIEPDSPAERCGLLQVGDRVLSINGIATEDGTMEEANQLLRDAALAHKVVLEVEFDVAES
row,Binder,pKd
1,B1,below the threshold
2,B2,3.54

# Target: MAGI1_2, Q96QZ7
# Experiment: holdup assay
# Design: key: below the threshold = too weak to quantify, mostly under pKd 3.1 to 4
# Conditions: plain residues with an end cap or a label only (N-terminal biotin on a linker: ado-ado)
# Sequence of MAGI1_2, Q96QZ7 (Q96QZ7 456-580): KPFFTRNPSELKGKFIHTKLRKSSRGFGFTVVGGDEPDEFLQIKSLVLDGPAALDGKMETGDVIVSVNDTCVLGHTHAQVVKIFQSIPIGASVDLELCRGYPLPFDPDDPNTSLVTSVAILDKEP
row,Binder,pKd
1,B1,below the threshold
2,B2,4.75

# Target: LNX1_1, Q8TBB1
# Experiment: holdup assay
# Design: key: below the threshold = too weak to quantify, mostly under pKd 3.1 to 4
# Conditions: plain residues with an end cap or a label only (N-terminal biotin on a linker: ado-ado)
# Sequence of LNX1_1, Q8TBB1 (Q8TBB1 261-371): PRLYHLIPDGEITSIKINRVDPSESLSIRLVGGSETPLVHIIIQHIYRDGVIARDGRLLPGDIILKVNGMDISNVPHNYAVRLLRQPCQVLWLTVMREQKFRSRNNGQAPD
row,Binder,pKd
1,B1,below the threshold
2,B2,3.9
